The values below come from article PMC6145145.

Substitutions are numbered along the chain they refer to.

For one data set, the target named is T1, POT1-K90E (human, UniProt Q9NUX5 1-634, K90E).
T1 sequence: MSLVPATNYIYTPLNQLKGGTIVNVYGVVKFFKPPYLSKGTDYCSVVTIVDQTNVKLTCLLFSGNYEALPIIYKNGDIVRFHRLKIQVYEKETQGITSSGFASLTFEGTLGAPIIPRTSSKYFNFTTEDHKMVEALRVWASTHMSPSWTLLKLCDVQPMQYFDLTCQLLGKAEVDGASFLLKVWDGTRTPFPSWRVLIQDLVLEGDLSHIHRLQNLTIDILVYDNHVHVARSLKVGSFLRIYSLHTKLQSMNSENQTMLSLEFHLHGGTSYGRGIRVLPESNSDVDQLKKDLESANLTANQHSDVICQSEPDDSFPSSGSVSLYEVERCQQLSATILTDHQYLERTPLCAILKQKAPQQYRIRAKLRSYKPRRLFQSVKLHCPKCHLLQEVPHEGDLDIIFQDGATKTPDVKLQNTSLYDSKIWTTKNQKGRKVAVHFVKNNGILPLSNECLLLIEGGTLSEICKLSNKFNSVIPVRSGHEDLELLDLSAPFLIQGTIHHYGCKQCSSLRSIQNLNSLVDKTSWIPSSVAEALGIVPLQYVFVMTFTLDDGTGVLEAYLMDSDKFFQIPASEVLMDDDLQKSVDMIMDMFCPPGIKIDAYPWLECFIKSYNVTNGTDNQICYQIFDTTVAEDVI
The experiment in a line: EMSA.

A further data set addresses T2, POT1 WT (human, UniProt Q9NUX5 1-634).
T2 sequence: T1 sequence with E90K
The experiment in a line: EMSA.

B1: telomeric primer (TTAGGG)3 (ssDNA)
DNA: TTAGGGTTAGGGTTAGGG
As for B1, the binding result with POT1-K90E and with POT1 WT was “binds” throughout.
